According to patent publication US20100137208A1, “INTRATUMORALLY ADMINISTERED LACTOFERRIN IN THE TREATMENT OF MALIGNANTNEOPLASMS AND OTHER HYPERPROLIFERATIVE DISEASES” (priority 2002, published 2010):

Tested on: IL-18
Assay: IL-18 levels in small intestine and serum after oral rhLF or bLF (ELISA)
Type: in vivo, mice
Description: Recombinant human lactoferrin and bovine lactoferrin were orally administered to mice, and the production of IL-18 in the small intestine was measured.
Mice were treated for three days daily with 65 mg/kg/day of rhLF, 300 mg/kg/day of rhLF or 300 mg/kg/day of bLF. For a control, mice were only administered the pharmaceutical carrier. Twenty-four hours following administration of the LF or control for 3 days, animals were weighed and blood and serum were collected. Serum was used for cytokine ELISA assays.
Also, at these time points, animals were sacrificed and the small intestinal tissue was removed for further analysis. Small intestinal epithelium was homogenized using a lysis buffer consisting of PBS, 1% Nonidet P-40, 0.5% sodium deoxycholate, and 0.1% sodium dodecyl sulphate containing 10 μg/ml PhenylMetheylsulfonyl fluoride. Homogenate was centrifuged at 15,000 rpm for 10 minutes and the supernatant stored at −80 C till it was tested for IL-18 levels.

[1] = oral 300 mg/kg/day for three days
[2] = oral 300 mg/kg/day for three days, 24 h after last dose

B1: bLF: bovine lactoferrin, orally administered comparator (protein, UniProt P24627 20-708, looked up)
Lactotransferrin: APRKNVRWCTISQPEWFKCRRWQWRMKKLGAPSITCVRRAFALECIRAIAEKKADAVTLDGGMVFEAGRDPYKLRPVAAEIYGTKESPQTHYYAVAVVKKGSNFQLDQLQGRKSCHTGLGRSAGWIIPMGILRPYLSWTESLEPLQGAVAKFFSASCVPCIDRQAYPNLCQLCKGEGENQCACSSREPYFGYSGAFKCLQDGAGDVAFVKETTVFENLPEKADRDQYELLCLNNSRAPVDAFKECHLAQVPSHAVVARSVDGKEDLIWKLLSKAQEKFGKNKSRSFQLFGSPPGQRDLLFKDSALGFLRIPSKVDSALYLGSRYLTTLKNLRETAEEVKARYTRVVWCAVGPEEQKKCQQWSQQSGQNVTCATASTTDDCIVLVLKGEADALNLDGGYIYTAGKCGLVPVLAENRKSSKHSSLDCVLRPTEGYLAVAVVKKANEGLTWNSLKDKKSCHTAVDRTAGWNIPMGLIVNQTGSCAFDEFFSQSCAPGADPKSRLCALCAGDDQGLDKCVPNSKEKYYGYTGAFRCLAEDVGDVAFVKNDTVWENTNGESTADWAKNLNREDFRLLCLDGTRKPVTEAQSCHLAVAPNHAVVSRSDRAAHVKQVLLHQQALFGKNGKNCPDKFCLFKSETKNLLFNDNTECLAKLGGRPTYEEYLGTEYVTAIANLKKCSTSPLLEACAFLTR
serum levels of IL-18 (in words) (oral 300 mg/kg/day): did not increase | IL-18 Intestinal Extract % Increase Over Control [1]: 373% | IL-18 Serum % Increase Over Control [1]: −5% | IL-18 level, Intestinal Extract [2]: 4,515 pg | IL-18 level, Serum [2]: 134 pg | intestinal IL-18 levels (in words) (oral 300 mg/kg/day, compared with rhLF): lesser increase
